Percent dimers data for 1 substance are collected here from PMC12518842.

The test addresses NISTmAb Primary Sample (PS 8670). In words: FPLC; mAb sample after buffer exchange; sample buffer 15 mM acetic acid, 40 mM NaCl, pH 5 (ionic strength 50 mM); column and running conditions not told.

Bounds are passed on as bounds.

“NISTmAb Primary Sample (PS 8670) (antibody)” showed a percent dimers of less than 1%.
